Measured values published in patent US20240082356A1, “TREATMENT OF COPD BY STIMULATION OF STEM CELL MOBILIZATION” (Therapeutic Solutions International, Inc., priority 2022, published 2024).

System: neutrophil infiltration in COPD like inflammation
Test: Neutrophil infiltration in elastase-induced COPD model
Format: in vivo
Details: female BALB/c mice injected with elastase (5 micrograms per mouse); G-CSF 10 micrograms per mouse every second day for one week and pterostilbene 40 mg/kg intraperitoneally; assessed on days 0, 7 and 14
Description: Female BALB/c mice, 10 per group, where injected with elastase (5 micrograms per mouse) to induce COPD like inflammation. Mice were given G-CSF (10 micrograms per mouse) every second day for one week and pterostilbene (40 mg/kg) intraperitoneally. Mice were sacrificed on days 0, 7, and 14 and assessed for neutrophil infiltration.

B1: G-CSF: stem cell mobilizer; colony stimulating factor (protein, UniProt P09919 31-207, looked up)
Granulocyte …: TPLGPASSLPQSFLLKCLEQVRKIQGDGAALQEKLVSECATYKLCHPEELVLLGHSLGIPWAPLSSCPSQALQLAGCLSQLHSGLFLYQGLLQALEGISPELGPTLDTLQLDVADFATTIWQQMEELGMAPALQPTQGAMPAFASAFQRRAGGVLVASHLQSFLEVSYRVLRHLAQP
B1 was tested, and the “neutrophil infiltration in COPD Model” value was “reduction of neutrophil infiltration”.
